“Also recorded” adds a separate entry of the source. Each block holds one molecule with its values, some of them ahead of it.
Tests used:
[1] = system: Wild type and SorCS2−/− mice; assay: Marble burying test; type: in vivo, mouse; conditions: fluoxetine 20 mg/kg injected 1 hour before, 20 min test
Text: The SorCS2 knockout mouse has been back-crossed for ten generations into C57/BL6J. Behavioral studies were done with the backcrossed homozygous mice compared to the same C57/BL6J substrain that was used for backcrossing (Glerup, Olsen et al., 2014). In the presented experiments, all mice lines had been backcrossed for ten generations into C57/BL6Jbom (Taconic) and littermate controls were used for experiments. All experiments were approved by the Danish Animal Experiments Inspectorate under the Ministry of Justice (Permit 2011/561-119) and carried according to institutional and national guidelines. All animals were bred and housed at the Animal Facility at Aarhus University. Animals were housed in groups of up to five mice per plastic cage (42×25×15 cm) under pathogen-free conditions with a 12-hour light/12-hour dark schedule and fed standard chow (Altromin #1324) and water ad libitum. Cages were cleaned every week and supplied with bedding and nesting material, a wooden stick, and a metal tunnel. Behavioral experiments were carried out using 12-16 weeks old male mice during their light cycle between 9:00 a.m. to 5:00 p.m. […]
Wild type and SorCS2^−/− mice were injected with either saline only or saline containing 20 mg/ml (20 mg/kg) fluoxetine (trade name Prozac™). […] They were then left for 20 min and hereafter the number of marbles that were more than 50% buried in each cage was counted.

[2] = system: SorCS2; assay: Western blot of SorCS2 expression in hippocampus and cortex after fluoxetine; type: in vivo, mouse; conditions: wt mice, fluoxetine in water for 3 weeks
Procedure: 3 wild-type mice were given either normal tap water or tap water containing 0.8 mg/ml fluoxetine for 3 weeks with water-chance once a week. Hereafter, the mice were euthanized by cervical dislocation and the hippocampus and cortex was dissected out. The samples were lysed in lysis buffer containing protease and phosphatase inhibitors. The samples were then analysed by Western blotting to see if treatment with fluoxetine can increase SorCS2 levels.

[3] = system: SorCS2; assay: SorCS2 phosphorylation (32P labelling, immunoprecipitation, autoradiography); type: cell-based, mouse; conditions: wt neurons; 1 nM BDNF 10 minutes vs unstimulated
Procedure: For studies on SorCS2 phosphorylation (FIG. 4A), wt neurons were seeded at a density of 2.5 million pr 6-well. After five days in culture, the medium was changed to phosphate-free medium+0.4 mCi/ml of ^32P labelled phosphate and left for 4 hours 37° C. and 5% CO2. Hereafter, the neurons were washed once in phosphate-free medium and medium is added containing 1 nM BDNF or similar volume of sterile PBS. This is left on for 10 minutes before removing the media and adding lysis buffer containing protease- and phosphatase-inhibitors. From the samples, immunoprecipitation was carried out using antibodies against SorCS2. The samples were then analyzed by SDS-gel and subsequent autoradiography to evaluate the phosphorylation of SorCS2.

[4] = system: hippocampal neurons; assay: BDNF induced formation of inhibitory synapses and spine density in vitro; type: cell-based, mouse; conditions: 1 nM BDNF; for number of glutamatergic synapses/spines: 24 hours; for number of inhibitory synapses: 72 hrs
Procedure: For studies on BDNF induced formation of inhibitory synapses, neurons from p0 wild type (wt) and SorCS2^−/− pups were seeded at a density of 100.000 neurons per coverslip. After 7 days in vitro, the medium was changed to medium containing either 1 nM of BDNF or similar volumes of sterile D-PBS. Neurons were incubated for 72 hrs at 37° C. and 5% CO2 before being fixed for 20 min in ice cold 4% PFA. After three 5 min washes in D-PBS, the neurons were stained against gephyrin, an inhibitory marker, and co stained against Map2, a marker of the dendritic tree. Images were taken by confocal microscopy and analysed using Imaris software.
To determine spine density in vitro, hippocampal neurons were isolated at PO and grown in culture at a density of 100.000 neurons pr coverslip. After 7 days in vitro the neurons were transfected with a plasmid containing GFP using Lipofectamine LTX reagent (15338-100) using the suppliers protocol. At 13 days in vitro the medium was changed to medium containing either 1 nM or 0 nM BDNF. Hereafter the cells were left in the incubator at 37° C. for 24 hours before being fixed in 4% PFA for 20 minutes at room temperature. To determine spine density, confocal images were obtained and subsequently assessed using Imaris software.

[5] = system: PLCy; assay: PLCy phosphorylation in transfected hSY5Y cells; type: cell-based; conditions: hSY5Y cells with SorCS2 and TrkB compared to only TrkB
Text: (§1) In FIG. 6 it is shown that SorCS2 is important for phosphorylation of the BDNF-receptor TrkB.hSY5Y cells were transfected with either SorCS2, TrkB or both (FIG. 6, panels A and B). Upon stimulation with BDNF a 2.5 fold increase in phosphorylation of TrkB was seen when SorCS2 was also present, compared to when only TrkB was present (FIG. 6, panel B). […] This indicates a critical role of SorCS2 in mediating the response to BDNF

[6] = system: SorCS2−/− neurons; assay: BDNF-mediated branching of SorCS2−/− neurons transfected with SorCS2 constructs; type: cell-based, mouse
Procedure: To study the role of SorCS2 in BDNF-mediated branching (FIG. 4B-G), SorCS2^−/− neurons were seeded at a density of 100.000 neurons pr coverslip in media containing the desired SorCS2 mutant together with GFP. After 6 hours, the medium was changed to normal neurobasal A medium containing either 1 nM BDNF or similar volume of sterile PBS. The neurons were incubated for 72 hrs at 37° C. and 5% CO2 before being fixed for 20 min in ice cold 4% PFA, before a three times 5 min washes in D-PBSPictures were taken using a confocal microscope and the branching patterns were analysed using Zen 2011 Image Processing (Carl Zeiss) as follows: The 1st, 2nd, 3rd and 4th order branching patterns of GFPpositive neurons were counted where 1st order branches were defined as neurites protruding from the cell soma and were only considered 1st order branches if the branch was longer than the diameter of the soma. 2nd order branches were defined as processes extending from the 1st order branch, and so forth. […]

[7] = system: hippocampal neurons; assay: Dendritic branching of neurons in vitro upon BDNF; type: cell-based, mouse; conditions: 1 nM BDNF
Procedure: (§2) To determine dendritic branching of neurons in vitro, hippocampal neurons were isolated from PO mice and grown in culture at a density of 5000 neurons per coverslip. After 24 hours the medium was changed to medium containing either 1 nM of BDNF or same volume of sterile PBS. Hereafter, the cells were left in the incubator at 37° C. for 72 hours before being fixed in 4% PFA for 20 minutes at room temperature. To determine cell morphology, the neurons were stained against β-tubulin (β-tubulin mouse mAb chemicon MAB3408). Images were taken using a confocal microscope and the branching patterns were analysed using Zen 2011 Image Processing (Carl Zeiss) as follows: The 1st, 2nd, 3rd and 4th order branching patterns the neurons were counted where 1S^t order branches were defined as neurites protruding from the cell soma and were only considered 1st order branches if the branch was longer than the diameter of the soma. 2nd order branches were defined as processes extending from the 1st order branch, and so forth.
For studies on BDNF induced morphological changes of GABAergic interneurons, neurons from p3 WT and SorCS2^−/− pups were seeded at a density of 5.000 neurons per coverslip. The WT and SorCS2^−/− neurons were seeded in 1 mL Neurobasal-A Medium containing either 1 nM BDNF or similar volumes of sterile D-PBS. The neurons were incubated for 72 hrs at 37° C. and 5% CO2 before being fixed for 20 min in ice cold 4% PFA. After three 5 min washes in D-PBS, neurons were stained, against mouse anti-β-tubulin and rabbit anti-GABA. Pictures were taken using a confocal microscope and the branching patterns were analysed using Zen 2011 Image Processing (Carl Zeiss) as follows: The 1st, 2nd, 3rd and 4th order branching patterns the neurons were counted where 1st order branches were defined as neurites protruding from the cell soma and were only considered 1st order branches if the branch was longer than the diameter of the soma. 2nd order branches were defined as processes extending from the 1st order branch, and so forth.

[8] = biological target: T1, TrkB (Homo sapiens, UniProt Q16620); assay: TrkB phosphorylation in transfected hSY5Y cells; type: cell-based; conditions: hSY5Y cells with SorCS2 and TrkB compared to only TrkB
T1 construct: expressed in transfected cells; host or cells: hSY5Y cells
Text: as §1

[9] = system: wild type neurons; assay: Morphological (neurotrophic) response of wild type neurons to SorCS2 tail peptides; type: cell-based, mouse; conditions: wt neurons; 1 nM BDNF
Procedure: as §2
We next created peptides similar to the intracellular tail of SorCS2. The first peptide had similar sequence to wild type SorCS2 tail except the serines at position 1125, 1128 and 1130, which had been changed to aspartic acids. Furthermore a TAT sequence had been added to facilitate entry into the neurons (FIG. 11), denoted “Ppep”.

T1 sequence (Q16620 32-822, species assumed): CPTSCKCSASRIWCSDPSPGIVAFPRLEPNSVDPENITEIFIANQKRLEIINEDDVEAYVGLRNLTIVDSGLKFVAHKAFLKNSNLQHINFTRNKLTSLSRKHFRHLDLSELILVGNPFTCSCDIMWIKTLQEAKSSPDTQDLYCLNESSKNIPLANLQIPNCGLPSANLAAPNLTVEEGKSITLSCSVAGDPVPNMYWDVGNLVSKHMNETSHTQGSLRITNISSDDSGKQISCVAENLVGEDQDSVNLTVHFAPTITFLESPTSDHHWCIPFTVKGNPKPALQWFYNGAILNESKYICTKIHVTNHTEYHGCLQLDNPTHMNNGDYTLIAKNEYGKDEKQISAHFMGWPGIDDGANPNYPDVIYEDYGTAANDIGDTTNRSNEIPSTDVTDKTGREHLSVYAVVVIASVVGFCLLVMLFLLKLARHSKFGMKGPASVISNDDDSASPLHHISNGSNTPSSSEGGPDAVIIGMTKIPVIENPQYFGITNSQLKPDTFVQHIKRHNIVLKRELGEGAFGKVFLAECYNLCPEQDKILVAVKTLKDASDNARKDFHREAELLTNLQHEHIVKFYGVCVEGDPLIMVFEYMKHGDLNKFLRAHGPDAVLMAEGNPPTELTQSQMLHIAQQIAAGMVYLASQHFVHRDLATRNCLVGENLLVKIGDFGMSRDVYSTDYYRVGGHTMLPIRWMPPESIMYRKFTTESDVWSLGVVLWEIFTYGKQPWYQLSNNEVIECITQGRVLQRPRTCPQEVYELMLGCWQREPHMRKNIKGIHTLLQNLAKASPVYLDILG

Molecule: CNCCC(Oc1ccc(C(F)(F)F)cc1)c1ccccc1 (stereo not drawn) [fluoxetine]
- number of marbles buried ([1]; SorCS2−/− mice): this effect was not observed; also recorded: this was not the case
- number of marbles buried ([1]; wild type mice): calmed and buried less marbles
- expression of SorCS2 (Western blot) ([2]; cortex): not in the cortex
- expression of SorCS2 (Western blot) ([2]; hippocampus): increase

- increase in phosphorylation of TrkB upon BDNF stimulation [8]: 2.5 fold
B1: BDNF: brain-derived neurotrophic factor, ligand of tyrosine kinase receptor TrkB (protein, UniProt P23560 19-247, looked up)
Neurotrophic factor BDNF …: APMKEANIRGQGGLAYPGVRTHGTLESVNGPKAGSRGLTSLADTFEHVIEELLDEDQKVRPNEENNKDADLYTSRVMLSSQVPLEPPLLFLLEEYKNYLDAANMSMRVRRHSDPARRGELSVCDSISEWVTAADKKTAVDMSGGTVTVLEKVPVSKGQLKQYFYETKCNPMGYTKEGCRGIDKRHWNSQCRTTQSYVRALTMDSKKRIGWRFIRIDTSCVCTLTIKRGR
- phosphorylation of SorCS2 [3]: increased phosphorylation
- number of glutamatergic synapses/spines ([4]; neurons lacking SorCS2): not the case
- number of inhibitory synapses ([4]; neurons lacking SorCS2): not the case
- number of glutamatergic synapses/spines ([4]; wt neurons): increase
- number of inhibitory synapses ([4]; wt neurons): increase
- phosphorylation of PLCy upon BDNF stimulation [5]: significant increase
- neurite branching response to BDNF ([6]; SorCS2−/− neurons transfected with S1128A variant): lost
- neurite branching response to BDNF ([6]; SorCS2−/− neurons transfected with S1130A variant): lost
- neurite branching response to BDNF ([6]; SorCS2−/− neurons transfected with full length SorCS2, 1 nM BDNF): rescues the response; also recorded: able to rescue response
- neurite branching response to BDNF ([6]; SorCS2−/− neurons transfected with full-length variant S1125A, S1128A and S1130A): diminished
- neurite branching response to BDNF ([6]; SorCS2−/− neurons transfected with variant lacking the intracellular domain): no increase in neurite branching
- neurite branching response to BDNF ([6]; SorCS2−/− neurons transfected with variant with deletion of 56 amino acids): lost
- neurite branching response to BDNF ([6]; SorCS2−/− neurons transfected with variant with deletion of the last 21 amino acids): still rescued the phenotype
- neurite branching response to BDNF ([6]; SorCS2−/− neurons transfected with variant with deletion of the last 35 amino acids): still rescued the phenotype
- dendritic complexity (branching) ([7]; GABAergic interneurons lacking SorCS2, 72 hrs): non-responsive
- dendritic complexity (branching) ([7]; glutamatergic neurons lacking SorCS2, 72 hours): not the case
- dendritic complexity (branching) ([7]; wt GABAergic interneurons, 72 hrs): increase in complexity
- dendritic complexity (branching) ([7]; wt glutamatergic neurons, 72 hours): increase in complexity
- complexity of neurons compared to neurons without BDNF (FIG. 13) [9]: increased in complexity
